The record followed here is the supplement of paper PMC9112550, “Optimization of the antimicrobial peptide Bac7 by deep mutational scanning” (BMC Biology, 2022).

This data set deals with Escherichia coli TOP10. In words: shrunken log2 fold change of peptide-encoding DNA abundance (4.5 h post-induction vs induction); higher = less antimicrobial activity (less host growth inhibition). Conditions: time post-induction: 4.5 h; library: site-saturation at positions 5, 18, 19, 20.
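Also: peptides expressed intracellularly from a pBAD plasmid library in pooled LB shake-flask culture, induced with 0.3% L-arabinose, DNA abundance read by NGS, three biological replicates, DESeq2 with apeglm shrinkage.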

For RRIRRRPPRLPRPRPRPPLCPRP, the “shrunken log2 fold change” value was 0.971.

As for RRIRRRPPRLPRPRPRPSKMPRP, the “shrunken log2 fold change” value worked out at 0.335.

On to RRIRMRPPRLPRPRPRPIQSPRP, for which the “shrunken log2 fold change” value is 0.00351.

On to RRIRCRPPRLPRPRPRPVNRPRP, for which the “shrunken log2 fold change” value was -0.0405.

RRIRMRPPRLPRPRPRPKFAPRP: the “shrunken log2 fold change” value worked out at 0.51.

For RRIRQRPPRLPRPRPRPLEEPRP, the “shrunken log2 fold change” value was determined as 0.275.

Consider RRIRERPPRLPRPRPRPKKIPRP, for which the “shrunken log2 fold change” value was -0.515.

With RRIRERPPRLPRPRPRPYRHPRP, the “shrunken log2 fold change” value is -0.0262.

RRIRQRPPRLPRPRPRPRCPPRP: the “shrunken log2 fold change” value worked out at 0.313.

RRIRCRPPRLPRPRPRPEKSPRP: the “shrunken log2 fold change” value stood at 0.0445.

With RRIRFRPPRLPRPRPRPGGGPRP, the “shrunken log2 fold change” value stood at 0.727.

Regarding RRIRERPPRLPRPRPRPDYNPRP, the “shrunken log2 fold change” value was -0.53.

On to RRIRPRPPRLPRPRPRPTQSPRP, for which the “shrunken log2 fold change” value came out at 0.436.

RRIRERPPRLPRPRPRPCVCPRP: the “shrunken log2 fold change” value was -0.132.

Consider RRIRCRPPRLPRPRPRPYIPPRP, for which the “shrunken log2 fold change” value is -0.771.

For RRIRGRPPRLPRPRPRPPNEPRP, the “shrunken log2 fold change” value came to 0.947.

With RRIRNRPPRLPRPRPRPRINPRP, the “shrunken log2 fold change” value is -0.14.

Turning to RRIRIRPPRLPRPRPRPNSEPRP, the “shrunken log2 fold change” value was -0.686.

On to RRIRRRPPRLPRPRPRPWFNPRP, for which the “shrunken log2 fold change” value is -0.241.

With RRIRCRPPRLPRPRPRPPNGPRP, the “shrunken log2 fold change” value was -0.0741.

On to RRIRDRPPRLPRPRPRPQTCPRP, for which the “shrunken log2 fold change” value came out at 0.0864.

RRIRVRPPRLPRPRPRPVIAPRP: the “shrunken log2 fold change” value is -0.0291.

For the sequence RRIRHRPPRLPRPRPRPHYTPRP, the “shrunken log2 fold change” value was -0.903.

Turning to RRIRLRPPRLPRPRPRPRCYPRP, the “shrunken log2 fold change” value was 0.0161.

Regarding RRIRKRPPRLPRPRPRPSCEPRP, the “shrunken log2 fold change” value was determined as 0.401.

For the sequence RRIRTRPPRLPRPRPRPASSPRP, the “shrunken log2 fold change” value was -0.362.

Turning to RRIRVRPPRLPRPRPRPAEHPRP, the “shrunken log2 fold change” value was -0.086.

For the sequence RRIRQRPPRLPRPRPRPMDYPRP, the “shrunken log2 fold change” value was -0.0062.

In the case of RRIRSRPPRLPRPRPRPWIMPRP, the “shrunken log2 fold change” value is -0.572.

For the sequence RRIRPRPPRLPRPRPRPPQVPRP, the “shrunken log2 fold change” value was 0.368.

Regarding RRIRKRPPRLPRPRPRPGAMPRP, the “shrunken log2 fold change” value amounted to 0.639.

Regarding RRIRWRPPRLPRPRPRPHKWPRP, the “shrunken log2 fold change” value came out at 0.18.

As for RRIRPRPPRLPRPRPRPSDWPRP, the “shrunken log2 fold change” value stood at 0.248.

As to RRIRARPPRLPRPRPRPMEGPRP, the “shrunken log2 fold change” value was found to be 0.667.

In the case of RRIRRRPPRLPRPRPRPQYNPRP, the “shrunken log2 fold change” value was -0.224.

In the case of RRIRARPPRLPRPRPRPNWYPRP, the “shrunken log2 fold change” value was -0.245.

Turning to RRIRTRPPRLPRPRPRPKGWPRP, the “shrunken log2 fold change” value came out at 0.414.

For RRIRGRPPRLPRPRPRPKCCPRP, the “shrunken log2 fold change” value worked out at 0.56.

For RRIRTRPPRLPRPRPRPGGLPRP, the “shrunken log2 fold change” value was -0.0407.

In the case of RRIRSRPPRLPRPRPRPSNGPRP, the “shrunken log2 fold change” value was -0.0205.

On to RRIRNRPPRLPRPRPRPILGPRP, for which the “shrunken log2 fold change” value is -0.00992.

On to RRIRCRPPRLPRPRPRPTALPRP, for which the “shrunken log2 fold change” value is 0.216.

For RRIRGRPPRLPRPRPRPKYFPRP, the “shrunken log2 fold change” value is -0.251.

Regarding RRIRRRPPRLPRPRPRPWVGPRP, the “shrunken log2 fold change” value was -0.00367.

Take RRIRARPPRLPRPRPRPRPAPRP: the “shrunken log2 fold change” value was 0.76.

Take RRIRTRPPRLPRPRPRPHVGPRP: the “shrunken log2 fold change” value came to 0.0439.

Turning to RRIRFRPPRLPRPRPRPVHWPRP, the “shrunken log2 fold change” value is -0.105.

With RRIRQRPPRLPRPRPRPYFLPRP, the “shrunken log2 fold change” value was -0.923.

RRIRHRPPRLPRPRPRPQGIPRP: the “shrunken log2 fold change” value was 0.0372.

Regarding RRIRARPPRLPRPRPRPFCTPRP, the “shrunken log2 fold change” value was determined as 0.0721.

RRIRFRPPRLPRPRPRPFPVPRP: the “shrunken log2 fold change” value is -0.0374.

For the sequence RRIRYRPPRLPRPRPRPQGHPRP, the “shrunken log2 fold change” value is -0.17.

For the sequence RRIRHRPPRLPRPRPRPMMWPRP, the “shrunken log2 fold change” value is -0.0542.

On to RRIRMRPPRLPRPRPRPVDWPRP, for which the “shrunken log2 fold change” value worked out at 1.21.

Consider RRIRDRPPRLPRPRPRPFCCPRP, for which the “shrunken log2 fold change” value was found to be 0.26.

Regarding RRIRDRPPRLPRPRPRPIFGPRP, the “shrunken log2 fold change” value worked out at 0.0916.

As to RRIRHRPPRLPRPRPRPQAVPRP, the “shrunken log2 fold change” value was 0.00884.

For the sequence RRIRYRPPRLPRPRPRPHYEPRP, the “shrunken log2 fold change” value is -1.49.

As for RRIRKRPPRLPRPRPRPTWYPRP, the “shrunken log2 fold change” value is -0.0991.

In the case of RRIRSRPPRLPRPRPRPLVEPRP, the “shrunken log2 fold change” value is 0.28.

As for RRIRVRPPRLPRPRPRPFGLPRP, the “shrunken log2 fold change” value was -0.0857.

Take RRIRDRPPRLPRPRPRPADNPRP: the “shrunken log2 fold change” value was -0.0897.

RRIRPRPPRLPRPRPRPCLQPRP: the “shrunken log2 fold change” value was -0.631.

For RRIRMRPPRLPRPRPRPTLTPRP, the “shrunken log2 fold change” value amounted to 1.4.

As to RRIRERPPRLPRPRPRPVIPPRP, the “shrunken log2 fold change” value was -0.23.

Consider RRIRLRPPRLPRPRPRPGCRPRP, for which the “shrunken log2 fold change” value was 0.157.

For the sequence RRIRSRPPRLPRPRPRPWNMPRP, the “shrunken log2 fold change” value is -0.077.

Take RRIRCRPPRLPRPRPRPEWIPRP: the “shrunken log2 fold change” value is -0.151.

RRIRPRPPRLPRPRPRPHYNPRP: the “shrunken log2 fold change” value was -0.769.

For RRIRRRPPRLPRPRPRPTERPRP, the “shrunken log2 fold change” value came to 0.409.

For RRIRWRPPRLPRPRPRPEKCPRP, the “shrunken log2 fold change” value turned out to be 0.0983.

For RRIRKRPPRLPRPRPRPGFNPRP, the “shrunken log2 fold change” value came out at 0.0583.

Consider RRIRRRPPRLPRPRPRPIHAPRP, for which the “shrunken log2 fold change” value was -0.102.

RRIRWRPPRLPRPRPRPCLCPRP: the “shrunken log2 fold change” value is -0.0914.

In the case of RRIRERPPRLPRPRPRPSLLPRP, the “shrunken log2 fold change” value was -0.208.

Take RRIRIRPPRLPRPRPRPSKTPRP: the “shrunken log2 fold change” value was 0.0676.

With RRIRSRPPRLPRPRPRPFYIPRP, the “shrunken log2 fold change” value was -0.608.

For RRIRVRPPRLPRPRPRPFLSPRP, the “shrunken log2 fold change” value was -0.567.

Turning to RRIRARPPRLPRPRPRPQNQPRP, the “shrunken log2 fold change” value is -0.141.

For RRIRTRPPRLPRPRPRPVDPPRP, the “shrunken log2 fold change” value is -0.175.

In the case of RRIRPRPPRLPRPRPRPIQSPRP, the “shrunken log2 fold change” value was -0.083.

Turning to RRIRPRPPRLPRPRPRPERNPRP, the “shrunken log2 fold change” value was -0.307.

As for RRIRFRPPRLPRPRPRPFGEPRP, the “shrunken log2 fold change” value was determined as 0.135.

With RRIRNRPPRLPRPRPRPPSKPRP, the “shrunken log2 fold change” value was -0.161.

Turning to RRIRHRPPRLPRPRPRPIRMPRP, the “shrunken log2 fold change” value was -0.217.

As for RRIRHRPPRLPRPRPRPDKSPRP, the “shrunken log2 fold change” value is -0.276.

Regarding RRIRVRPPRLPRPRPRPYFPPRP, the “shrunken log2 fold change” value was 0.109.

On to RRIRNRPPRLPRPRPRPAIYPRP, for which the “shrunken log2 fold change” value is -0.425.

On to RRIRRRPPRLPRPRPRPTMIPRP, for which the “shrunken log2 fold change” value was -0.195.

As to RRIRYRPPRLPRPRPRPFWIPRP, the “shrunken log2 fold change” value was -0.0013.

As to RRIRHRPPRLPRPRPRPQNWPRP, the “shrunken log2 fold change” value is 0.0558.

Regarding RRIRLRPPRLPRPRPRPANRPRP, the “shrunken log2 fold change” value is -0.133.

Consider RRIRLRPPRLPRPRPRPLYAPRP, for which the “shrunken log2 fold change” value is -0.389.

On to RRIRNRPPRLPRPRPRPFCCPRP, for which the “shrunken log2 fold change” value is -0.257.

Regarding RRIRLRPPRLPRPRPRPDNEPRP, the “shrunken log2 fold change” value is -0.162.

On to RRIRNRPPRLPRPRPRPGAAPRP, for which the “shrunken log2 fold change” value is 0.417.

With RRIRQRPPRLPRPRPRPDWVPRP, the “shrunken log2 fold change” value was 0.116.

On to RRIRPRPPRLPRPRPRPLGIPRP, for which the “shrunken log2 fold change” value was -0.0635.

Turning to RRIRSRPPRLPRPRPRPVEQPRP, the “shrunken log2 fold change” value is -0.0605.

As to RRIRKRPPRLPRPRPRPGQCPRP, the “shrunken log2 fold change” value was found to be 0.0394.

As for RRIRPRPPRLPRPRPRPMMCPRP, the “shrunken log2 fold change” value was -0.147.

As for RRIRHRPPRLPRPRPRPNLAPRP, the “shrunken log2 fold change” value stood at 0.0843.

Regarding RRIRDRPPRLPRPRPRPLQDPRP, the “shrunken log2 fold change” value is 0.115.

For RRIRQRPPRLPRPRPRPNCTPRP, the “shrunken log2 fold change” value was -0.448.

Take RRIRQRPPRLPRPRPRPMRHPRP: the “shrunken log2 fold change” value is 2.84.

For RRIRMRPPRLPRPRPRPMFHPRP, the “shrunken log2 fold change” value is -0.244.

For the sequence RRIRVRPPRLPRPRPRPLNNPRP, the “shrunken log2 fold change” value was -0.733.

In the case of RRIRDRPPRLPRPRPRPRCYPRP, the “shrunken log2 fold change” value stood at 0.105.

Regarding RRIRRRPPRLPRPRPRPQFKPRP, the “shrunken log2 fold change” value was -0.145.

RRIRCRPPRLPRPRPRPCSPPRP: the “shrunken log2 fold change” value was -0.241.

For RRIRIRPPRLPRPRPRPRCYPRP, the “shrunken log2 fold change” value is -0.586.

Take RRIRTRPPRLPRPRPRPPWKPRP: the “shrunken log2 fold change” value is -0.107.

Consider RRIRYRPPRLPRPRPRPDWKPRP, for which the “shrunken log2 fold change” value is -0.208.

Take RRIRERPPRLPRPRPRPRGAPRP: the “shrunken log2 fold change” value stood at 0.59.

Take RRIRMRPPRLPRPRPRPFGTPRP: the “shrunken log2 fold change” value was -0.112.

Consider RRIRMRPPRLPRPRPRPIMEPRP, for which the “shrunken log2 fold change” value was -0.00133.

As to RRIRVRPPRLPRPRPRPRDQPRP, the “shrunken log2 fold change” value is -0.0604.

RRIRVRPPRLPRPRPRPMGVPRP: the “shrunken log2 fold change” value was -0.0267.

As for RRIRARPPRLPRPRPRPQKGPRP, the “shrunken log2 fold change” value was found to be 0.0244.

As to RRIRERPPRLPRPRPRPGFDPRP, the “shrunken log2 fold change” value was determined as 0.0961.

On to RRIRDRPPRLPRPRPRPHMFPRP, for which the “shrunken log2 fold change” value was -0.0389.

For the sequence RRIRLRPPRLPRPRPRPYPMPRP, the “shrunken log2 fold change” value came out at 0.00832.

Turning to RRIRPRPPRLPRPRPRPQRQPRP, the “shrunken log2 fold change” value turned out to be 0.109.

For RRIRPRPPRLPRPRPRPNQLPRP, the “shrunken log2 fold change” value was -0.258.

For the sequence RRIRVRPPRLPRPRPRPFFCPRP, the “shrunken log2 fold change” value was -0.00678.
